The record followed here is US9731036 (dated 2017).

To fix the notation:
T1: CEACAM1 protein (CD66a), whole, on cells (human, UniProt P13688 35-526)
T1 construct: whole, on cells; also called CCM1
T1 sequence (looked up): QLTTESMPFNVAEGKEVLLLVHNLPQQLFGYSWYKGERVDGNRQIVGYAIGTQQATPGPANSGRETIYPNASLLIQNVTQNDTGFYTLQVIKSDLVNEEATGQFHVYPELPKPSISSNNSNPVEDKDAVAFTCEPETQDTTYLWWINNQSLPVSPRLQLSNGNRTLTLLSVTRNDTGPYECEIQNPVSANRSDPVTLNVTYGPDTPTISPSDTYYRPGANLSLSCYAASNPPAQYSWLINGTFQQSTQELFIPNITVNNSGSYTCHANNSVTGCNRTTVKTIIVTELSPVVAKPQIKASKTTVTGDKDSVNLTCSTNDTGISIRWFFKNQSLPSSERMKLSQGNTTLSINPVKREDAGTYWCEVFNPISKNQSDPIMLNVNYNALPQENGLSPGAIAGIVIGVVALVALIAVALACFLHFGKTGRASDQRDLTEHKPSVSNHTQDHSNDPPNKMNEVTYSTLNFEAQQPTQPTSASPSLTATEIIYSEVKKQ

T2: CCM1-RQ43,44SL (CEACAM1 with S and L at positions 43 and 44 instead of R and Q) (human, UniProt P13688 35-526)
T2 construct: whole, on cells; also called CEACAM 1-RQ43,44SL
T2 sequence (looked up): T1 sequence (looked up) with R43S, Q44L

T3: CEACAM6 protein, whole, on 721.221 cells (human, UniProt P40199 35-320, GPI-anchored to the cell membrane)
T3 construct: whole, on cells; also called CCM6; CD66c
T3 sequence (looked up): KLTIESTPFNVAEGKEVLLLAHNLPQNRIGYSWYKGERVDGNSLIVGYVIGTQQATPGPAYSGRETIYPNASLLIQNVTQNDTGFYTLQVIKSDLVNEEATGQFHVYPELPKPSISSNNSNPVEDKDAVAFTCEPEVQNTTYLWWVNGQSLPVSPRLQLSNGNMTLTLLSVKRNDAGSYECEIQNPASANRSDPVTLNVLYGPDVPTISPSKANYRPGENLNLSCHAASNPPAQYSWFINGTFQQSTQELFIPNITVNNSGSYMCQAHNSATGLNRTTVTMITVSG

T4: CCM1-Q44L (CEACAM1 with 44Q changed to 44L) (human, UniProt P13688 35-526)
T4 construct: whole, on cells; also called CEACAM1-Q44L
T4 sequence (looked up): T1 sequence (looked up) with Q44L

T5: CCM1-R43A (CEACAM1 with 43R changed to 43A) (human, UniProt P13688 35-526)
T5 construct: whole, on cells; Expression lower than that of the other transfectants; also called CEACAM1-R43A
T5 sequence (looked up): T1 sequence (looked up) with R43A

B1: CCM6-SL43,44RQ (CEACAM6 with R and Q at positions 43 and 44 instead of S and L) (receptor, human, UniProt P40199 35-320, looked up)
chain: T3 sequence (looked up) with S43R, L44Q
notes: whole, on cells; also called CEACAM6-SL43,44RQ
B2: CCM6-S43R (CEACAM6 with 43S changed to 43R) (receptor, human, UniProt P40199 35-320, looked up)
chain: T3 sequence (looked up) with S43R
notes: whole, on cells; also called CEACAM6-S43R
B3: CCM6-L44Q (CEACAM6 with 44L changed to 44Q) (receptor, human, UniProt P40199 35-320, looked up)
chain: T3 sequence (looked up) with L44Q
notes: whole, on cells; also called CEACAM6-L44Q
B4: CD99-Ig fusion protein (control) (Fc fusion, UniProt P14209 23-122, looked up)
chain: DGGFDLSDALPDNENKKPTAIPKKPSAGDDFDLGDAVVDGENDDPRPPNPPKPMPNPNPNHPSSSGSFSDADLADGVSGGEGKGGSDGGGSHRKEGEEAD
notes: extracellular domain; Made in COS-7 cells, purified on protein G; construct described elsewhere; also called control CD99-Ig; not shown: human IgG1 Fc portion
B5: CCM6-TailCCM1 (entire extracellular portion of CEACAM6 fused to the transmembrane and tail portions of CEACAM1) (receptor, human, UniProt P40199 35-320, looked up)
chain: KLTIESTPFNVAEGKEVLLLAHNLPQNRIGYSWYKGERVDGNSLIVGYVIGTQQATPGPAYSGRETIYPNASLLIQNVTQNDTGFYTLQVIKSDLVNEEATGQFHVYPELPKPSISSNNSNPVEDKDAVAFTCEPEVQNTTYLWWVNGQSLPVSPRLQLSNGNMTLTLLSVKRNDAGSYECEIQNPASANRSDPVTLNVLYGPDVPTISPSKANYRPGENLNLSCHAASNPPAQYSWFINGTFQQSTQELFIPNITVNNSGSYMCQAHNSATGLNRTTVTMITVSGAIAGIVIGVVALVALIAVALACFLHFGKTGRASDQRDLTEHKPSVSNHTQDHSNDPPNKMNEVTYSTLNFEAQQPTQPTSASPSLTATEIIYSEVKKQ
notes: extracellular domain;domain: transmembrane and tail portions
B6: CEACAM1-Ig fusion protein (extracellular portion of CEACAM1 fused to the Fc portion of human IgG1) (Fc fusion, UniProt P13688 35-428, looked up)
chain: QLTTESMPFNVAEGKEVLLLVHNLPQQLFGYSWYKGERVDGNRQIVGYAIGTQQATPGPANSGRETIYPNASLLIQNVTQNDTGFYTLQVIKSDLVNEEATGQFHVYPELPKPSISSNNSNPVEDKDAVAFTCEPETQDTTYLWWINNQSLPVSPRLQLSNGNRTLTLLSVTRNDTGPYECEIQNPVSANRSDPVTLNVTYGPDTPTISPSDTYYRPGANLSLSCYAASNPPAQYSWLINGTFQQSTQELFIPNITVNNSGSYTCHANNSVTGCNRTTVKTIIVTELSPVVAKPQIKASKTTVTGDKDSVNLTCSTNDTGISIRWFFKNQSLPSSERMKLSQGNTTLSINPVKREDAGTYWCEVFNPISKNQSDPIMLNVNYNALPQENGLSPG
notes: extracellular domain; Made in COS-7 cells, purified on protein G. A silent nucleotide change (A885G, glycine 281 unchanged) removes a BamHI site; also called CCM1-Ig; soluble CEACAM1-Ig; not shown: Fc portion of human IgG1

Assay [1] concerns the target T1, CEACAM1 protein (CD66a), whole, on cells. Description: cell-based or functional assay.
Assay [2] has as its target B6. Description: flow cytometry on 721.221 transfectants. From the text:
(§1) The staining of the secondary reagent FITC-conjugated goat anti-mouse F(ab_)2 of each cell type was used as background (_). The y-axis indicates the median fluorescence intensity (MFI). […] The y-axis indicates the median fluorescence intensity (MFI). […] The E:T cell ratio was 2:1.
(§2) Specificity of CEACAM1 Binding to CEACAM6 is Controlled by the Presence of Both 43R and 44Q Residues To determine whether both residues are required for binding, the amino acid residues in positions 43 and 44 in CEACAM1 (contains 43R44Q) and CEACAM6 (contains 43S44L) were mutated. Using site-directed mutagenesis in the CEACAM1, the 43R residue was changed to 43A (CCM1-R43A) and the 44Q residue was changed to 44L (CCM1-Q44L). In CEACAM6, the 43S was changed to 43R (CCM6-S43R) and 44L was changed to 44Q (CCM6-L44Q). All mutants were generated as described in Materials and Methods and stably transfected into 0.221 cells. The expression level was monitored by Kat4c mAb, and conformation was monitored by 5F4 mAb (FIG. 7A). […] Similar results were obtained when both 44Q and 43R residues in CEACAM1 were mutated (FIG. 5).
(A flow cytometer gives signals particle by particle.)

The target of assay [3] is T1, CEACAM1 protein (CD66a), whole, on cells. Kind of assay: flow cytometry on 721.221 transfectants.
From the text: as §1, §2

Assay [4] concerns the target B1. Description: flow cytometry on 721.221 transfectants.
From the text: as §1, §2

Assay [5] has as its target T2, CCM1-RQ43,44SL (CEACAM1 with S and L at …). Description: flow cytometry on 721.221 transfectants.
From the text: as §1, §2

In assay [6] the target is T3, CEACAM6 protein, whole, on 721.221 cells. Description: flow cytometry on 721.221 transfectants.
From the text: as §1, §2

The target of assay [7] is T4, CCM1-Q44L (CEACAM1 with 44Q changed to …). Kind of assay: flow cytometry on 721.221 transfectants.
From the text: as §1, §2

The target of assay [8] is T5, CCM1-R43A (CEACAM1 with 43R changed to …). Description: flow cytometry on 721.221 transfectants.
From the text: as §1, §2

Positions count from the first letter of the chain named. Names and notes keep the numbering of the source.

As for “mAb Kat4c (DakoCytomation), directed against CEACAM1, -5, -6, and -8 (antibody)”, the intracellular IFN-gamma staining of the NKT clone after cross-linking with Kat4c (fold above background) in assay [1] was determined as 4.5.

In the case of B1, the binding result in assay [2] is on record as “binds”.

Turning to B2, the binding result in assay [2] is recorded as “no binding”.

Consider B3, for which the binding result in assay [2] is on record as “no binding”.

With B4, the binding result in assay [3], in assay [4], in assay [5] and in assay [6] was “no binding” throughout.

On to B5, for which the binding result in assay [2] is on record as “no binding”.

Turning to B6, the binding result in assay [5], in assay [7] and in assay [8] was “no binding” each time.
